Laboratory results published in patent US20160053248A1, “SYSTEMS AND METHODS FOR EVOLVING ENZYMES WITH DESIRED ACTIVITIES” (Potomac Affinity Proteins, LLC, priority 2009, published 2016).
Primed or numbered codes have the meaning given here. No end group written: not given here. *: point of attachment. Dabcyl′ = CN(C)c1ccc(/N=N/c2ccc(C(=O)*)cc2)cc1

How the values were obtained:
[1] = system: SBT189; experiment: Transient state kinetics with FRET peptide: product release and product binding; design: species or system Bacillus amyloliquefaciens; details: not influenced by azide concentration
Description: (§1) The deacylation reaction and product release: A self-quenched FRET peptide that becomes highly fluorescent when cleaved (Dabcyl-EEDKLFRAL-SATE(EDANS)G (SEQ ID NO:16)) was synthesized. This peptide has been used to determine transient state kinetic parameters. Deacylation of SBT189 in 50 mM azide is faster (3.3 s^−1) than the wild type counterpart (1.8 s^−1). The rate of product (Dabcyl-EEDKLFRAL; (SEQ ID NO:17)) release is 6 s^−1 and Kp is 1.2 μM. Product binding is not influenced by azide concentration. Strong product binding of subtilisin-phage to GA-PCOGNATE- is used for the collection of active mutants in the release step in phage selection (see FIG. 5). Binding is constitutive at this step, however, and is not used to increase selectivity.

[2] = system: GA-PFRAL-S-GB; experiment: Cleavage kinetics of GA-PFRAL-S-GB by position 166 mutant versus parent enzyme; type: biochemical; details: no azide
Description: Mutants were selected that cleave the substrate GA-PFRAL-S-GB in response to azide. Phage were bound to the GA-PFRAL-S-GB substrate and collected on IgG-Sepharose. The ability to hydrolyze the fusion protein is selected by washing the beads in 1 mM azide for 5 minutes in the release step. Phage are therefore released or retained from the resin based on the kinetics with which they cleave GA-PFRAL from GB under the triggering condition. Released phage were collected on HSA-Sepharose, acid eluted, neutralized, used to infect fresh E. coli cells, plated out, and colonies counted. Three cycles of selection were carried out. After three rounds of selection, the consensus amino acid at position 166 was threonine. The kinetic properties of the T166 mutant were compared to parent enzyme (SBT189), which has a serine at 166. The T166 mutant hydrolyzed GA-PFRAL-S-GB 1.5-times faster than SBT 189 in 1 mM azide. […] Thus the ratio of triggered rate to intrinsic rate was increased 5-fold by optimizing a single amino acid position in the S1 subsite. This ratio is a quantitative measure of how tightly the enzyme is regulated by the trigger.

[3] = system: GA-PLFRAL-S-GB; experiment: Acylation kinetics (GB release) of pre-formed enzyme-substrate complex monitored by fluorescence; type: biochemical
Excerpt: In panels A-C, RSUB1(AF350) represents subtilisin SBT189 conjugated to AF350).
The acylation reaction: Step 2 describes conversion of the ternary complex into an acyl-enzyme with the concomitant release to the C-terminal portion of the substrate. With substrates used in phage display, the GB domain is released concomitantly with the acylation step. If a fluorescent reporter group is attached to subtilisin, a decrease in energy transfer enables time-dependent quantitation of acylation.

[4] = system: Dabcyl-EEDKLFRAL-SATE(EDANS)G; experiment: Transient state kinetics with self-quenched FRET peptide: deacylation; type: biochemical; details: SBT189 in 50 mM azide
Description: as §1

[5] = system: GB-LFRAL-SA-GFP; experiment: Digestion of GB-LFRAL-SA-GFP fusion protein in E. coli extract (protein gel, MALDI-MS); type: biochemical; details: 20 μM fusion protein, 50 nM SBT189, 10 mM azide, 0.1M KPi, pH 7.2, 22° C.
Description: In order to evaluate sequence specificity of SBT189 for the cognate sequence identified by phage display, a gene was constructed to direct the synthesis of a fusion of the 56 amino acid B domain (GB) of streptococcal Protein G to a linker comprising the cognate sequence LFRAL-SA (SEQ ID NO:5) followed by GFP. Accordingly, the protein is denoted “GB-LFRAL-SA-GFP”.
Timepoints were collected as indicated. The fusion protein (20 μM) was mixed with 50 nM of SBT189 in 10 mM azide, 0.1M KPi, pH 7.2, at 22° C.

[6] = molecular target: subtilisin; details: competitive inhibitor of active subtilisin; cited from earlier work

Molecule: Dabcyl-EEDKLFRAL ({Dabcyl′}-EEDKLFRAL)
- rate of product release [1]: 6 s⁻¹

B1: SBT189: D32A mutant of subtilisin, azide-triggered protease (SEQ ID NO: 27) (protein)
chain: AKCVSYGVAQIKAPALHSQGYTGSNVKVAVLASGIDSSHPDLNVAGGASFVPSETNPFQDNNSHGTHVAGTVLAVAPSASLYAVKVLGADGSGQASWIINGIEWAIANNMDVINMSLGSPSGSAALKAAVDKAVASGVVVVAAAGNSGTSGSSSTVSYPAKYPSVIAVGAVDSSNQRAPFSSVGPELDVMAPGVSICSTLPGGKYGALSGTSMASPHVAGAAALILSKHPNWTNTQVRSSLENTATKLGDSFYYGKGLINVEAAAQ
modifications: Subtilisin related sequence
- cleavage rate in the absence of azide [2]: 0.12 min⁻¹
- rate of GB release ([3]; 0.1M KPO4, pH 7.2, no azide, 22° C.): 0.0019 s⁻¹
- rate of GB release ([3]; saturating azide): 6.4 s⁻¹
- azide dependent rate enhancement ([3]; saturating azide versus no azide): about 3300 fold
- deacylation rate [4]: 3.3 s⁻¹
- processing of the fusion protein [5]: correctly and specifically processed

B2: 77 amino acid prodomain: 77 amino acid subtilisin prodomain (SEQ ID NO: 25) (protein, listed as Bacillus amyloliquefaciens)
chain: AGKSNGEKKYIVGFKQTMSTMSAAKKKDVISEKGGKVQKQFKYVDAASATLNEKAVKELKKDPSVAYVEEDHVAHAY
- Ki [6]: 540 nM
